Data on 2 molecules can be found in patent publication US20250002581A1.

Experiment [1] has as its target PD1 (human) (UniProt Q15116). Nature of the experiment: flow cytometry on 293T-PD1 cells, antibody 10 ng/ml; average ± deviation. For orientation: In flow cytometry, cells or beads pass a laser one at a time.
Experiment [2] deals with PD1 (human) (UniProt Q15116). The experiment can be described thus: flow cytometry on 293T-PD1 cells, antibody 10 ng/ml, second anti-human Fc antibody; the filing calls this staining non-specific.
PD1 (human), sequence (Q15116 25-288): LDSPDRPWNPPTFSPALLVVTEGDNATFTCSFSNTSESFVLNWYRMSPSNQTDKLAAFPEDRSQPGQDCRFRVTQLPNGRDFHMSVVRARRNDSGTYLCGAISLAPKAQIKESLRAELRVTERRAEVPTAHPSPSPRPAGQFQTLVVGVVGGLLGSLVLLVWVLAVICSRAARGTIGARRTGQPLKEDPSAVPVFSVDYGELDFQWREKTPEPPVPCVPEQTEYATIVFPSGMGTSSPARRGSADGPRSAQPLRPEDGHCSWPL

B1: murine CH101 (antibody, V domains shown)
VH: EVQLEESGPDLVKPSQSLSLTCTVTGYSITSGFAWHWLRQFPGNRLEWMGYIHYSGSTNYNPSLKSRISITRDTSKNQFFLQLNSVTTEDTATFYCARSDFWGQGTFVTVSS
VL: DVVMTQTPLNLSVTFGQPVSISCTSSQSLLDRDGETFMNWLFQRPGQSPKRLIYLVSKLDFGVPDRFTGSGSGTDFTLKISRVEAEDLGIYYCWQGTHFPLTFGGGTKLEIK
On to B1, for which the 293T-PD1 (%) in the experiment with PD1 (human) [1] is 3.15%.

B2: CH101-huIgG1(L/S) (antibody, not shown: a dimerising Fc or GST)
heavy: B1 VH
light: DVVMTQTPLNLSVTFGQPVSISCTSSQSLLDRDGETFMNWLFQRPGQSPKRLIYLVSKLDFGVPDRFTGSGSGTDFTLKISRVEAEDLGIYYCWQGTHFPLTFGGGTKLEIKRTVAAPSVFIFPPSDEQLKSGTASVVCLLNNFYPREAKVQWKVDNALQSGNSQESVTEQDSKDSTYSLSSTLTLSKADYEKHKVYACEVTHQGLSSPVTKSFNRGEC
On to B2, for which the 293T-PD1 (%) with PD1 (human) [2] was determined as 38.5%.
